Experimental data published in US20240270826A1 (NATIONAL RESEARCH COUNCIL OF CANADA, published 2024).

Key:
[1] = target: T1, SARS-CoV-2 spike trimer S (Wuhan, SmT1) (SARS-CoV-2 Wuhan); experiment: SPR, antigen on chip
T1 construct: extracellular domain

[2] = target: SARS-CoV-2 S1-RBD fused to human Fc (S1-RBD-Fc) (SARS-CoV-2 Wuhan; human); experiment: SPR, antigen on chip
[3] = target: T2, SARS-CoV-2 S1 (aa16-685) (Wuhan) (SARS-CoV-2 Wuhan, UniProt P0DTC2 16-685); experiment: SPR, antigen on chip
T2 construct: NRC; FLAG, 6xHis tags

[4] = target: T3, SARS-CoV-2 S2 (aa686-1208) (Wuhan) (SARS-CoV-2 Wuhan, UniProt P0DTC2 686-1208); experiment: SPR, antigen on chip
T3 construct: NRC; FLAG, 6xHis tags

[5] = target: Human SARS-CoV-2_Wuhan S (SmT1) (SARS-CoV-2 (Wuhan), UniProt P0DTC2 14-1208); experiment: flow cytometry SVNA, VHH vs biotin-S binding to Vero E6 ACE2

Binder	Kd [1] [nM]	koff [1] [s⁻¹]	kon [1] [M⁻¹ s⁻¹]	Kd [2] [nM]	koff [2] [s⁻¹]	kon [2] [M⁻¹ s⁻¹]	Kd [3] [nM]	koff [3] [s⁻¹]	kon [3] [M⁻¹ s⁻¹]	binding result [4]	IC50 [5] [nM]	IC99 [5] [nM]	Imax % [5] [%]	binding result [3]	Kd [4] [nM]	koff [4] [s⁻¹]	kon [4] [M⁻¹ s⁻¹]
NRCoV2-20 VHH (VHH) VHH: EVQLQQSGGGLVQPGGSLRLSCAASGRTFSNYVVGWFRQAPQAPGKDHEFVAVISGSDTETYYADSVKGRFTISRDNAKNTVYLQMNSLKPEDTAVYYCAADRGMSYYYTRATEYYYWGQGTQVTVSS	6.73	0.0159	2.37e+06	8.61	0.0123	1.43e+06	9.63	0.0189	1.96e+06	no binding	–	–	–	–	–	–	–
NRCoV2-SR13 VHH (VHH) VHH: EVQLVESGGGLVTTGGSLRLSCATSGSRFGSKHMAWYRQAPGKQRDLVAAISSGGSTHYGSSVKGRFTISRDNAKSTVYLQMNSLNPEDTAVFYCNMGGWDYRSNTYIPGSRSDYWGQGTQVTVSS	2.62	0.00481	1.83e+06	–	–	–	2.43	0.00545	2.25e+06	no binding	–	–	–	–	–	–	–
NRCoV2-MRed05 VHH (VHH) VHH: EVQLVESGGGLVQPGGSLRLSCAASGFTLDYYAIGWFRQAPGKEREGVSCISSSDGSTLYADSVKGRFTISRDNAKNTVYLQMNSLKPEDTAVYYCATGPQAYYSGSYYFQCPQAGMDYWGKGTQVTVSS	–	–	–	–	–	–	–	–	–	–	15	184	88	–	–	–	–
NRCoV2-02 VHH (VHH) VHH: EVQLVESGGGLVQAGGSLRLSCAASGFTFSNYAMNWVRQAPGKGLEWVSGISGRGDDTRYADSVKGRFTISRDNAKNTLFLQMRSLRPEDTGVYRCTKGPDLYYFGSGYSDRGQGTQVTVSS	0.661	0.00141	2.14e+06	0.773	0.00141	1.83e+06	0.659	0.00138	2.1e+06	no binding	–	–	–	–	–	–	–
NRCoV2-S2A4 VHH (VHH) VHH: QVQLVQSGGGLVQAGGSLRLSCAVSGSPFRSNVMEWYRQAPGKQRELVASISTGGSRTYTDSVKGRFTISRDNAKNEAFLQMNSLKPEDTAVYYCHAAARDSHGIYLLDTWGQGTQVTVSS	12.8	0.000446	34900	–	–	–	–	–	–	–	–	–	–	no binding	14.7	0.000414	28100
NRCoV2-14 VHH (VHH) VHH: EVQLVSSGGGLVQAGGSLRLSCEASGTTFSHYAVGWYRQAPGKQREWVASISVFGSTTYGGSVAGRFTISRDNDKNTVDLQMNSLKPEDTAVYYCHAVNADIGGDYWGQGTQVTVSS	–	–	–	–	–	–	–	–	–	–	21.3	17400	54	–	–	–	–
NRCoV2-SR02 VHH (VHH) VHH: EVQLVDSGGGLVQAGGSLRLSCTASEFTLNYYSIGWFRQSPGKEREGVSCIRYSGGGIDYADSVKGRFTISRDNAKNTVYLTMNSLKPEDTAVYYCAADRLYSRACPTAGGRNYWGQGTQVTVSS	0.59	0.000571	967000	–	–	–	0.53	0.000555	1.05e+06	no binding	–	–	–	–	–	–	–
NRCoV2-SR16 VHH (VHH) VHH: QVQLVQSAGGLVQAGGSLRLSCVVSGTTFSRYHMGWHRQAPGKQRDFVAGISTSGAVTYADSAKGRFTISRDNAKNTVYLEMNSLKLEDTALYYCNTGGWDYRSSTFIMGLNWGQGTQVTVSS	1.82	0.0012	657000	–	–	–	1.55	0.00115	739000	no binding	–	–	–	–	–	–	–
NRCoV2-03 VHH (VHH) VHH: EVQLVSSGGGLVQAGGSLRLSCTASGITFSYYAMGWYRQAPGQPRELVASMSNMDSTIYADSVKGRFTISRDNAKTTIYLQMNNLKPEDTAVYFCNIYGPTYSTRRNEYWGQGTQVTVSS	1.34	0.000334	250000	1.53	0.000255	166000	1.09	0.000263	241000	no binding	–	–	–	–	–	–	–
NRCoV2-SR04 VHH (VHH) VHH: QVQLVESGGGLVQAGGSLRLSCAASGRTFSSHTVGWYRQAPGKQRDLVAAISMGGNTNYADYADSVKGRFTISRDNAKNTLYLQMNSLKPEDTAVYYCNTAALVGNRLLPMATITWGQGTQVTVSS	0.14	0.000335	2.39e+06	–	–	–	0.226	0.000493	2.18e+06	no binding	–	–	–	–	–	–	–
NRCoV2-S2G4 VHH (VHH) VHH: QVQLVQSGGGLVQAGGSLTLSCAPSGSTFSGYATNWYRQAPGKQRELVATISSDGDKNYADSVKGRFTISRDNAKNTVYLQMNSLKPEDTAVYYCNKHWWTGDWWGQGTQVTVSS	0.232	0.000207	893000	–	–	–	–	–	–	–	–	–	–	no binding	0.413	0.000382	925000
NRCoV2-S2F3 VHH (VHH) VHH: EVQLVQSGGGLVQAGGSLRLSCATSVRILSVPAMGWYRQAPGKEREMVAVITSGGSTNYADSVKGRFTISRDNAKNTVYLQMNSLKLEDTAVYQCNLRDILSQPFWGQGTQVTVSS	3.03	0.000473	156000	–	–	–	–	–	–	–	–	–	–	no binding	6.22	0.000629	101000
NRCoV2-10 VHH (VHH) VHH: QLQLQESGGGLVQPGGSLTLSCAASGNTFSRSNMHWYRQAPGAQREWVAAISSRGISTYAYSAKGRFTISRDNAKNTVSLQMNSLKPEDTAVYYCYAADDLGDYWGQGTQVTVSS	–	–	–	–	–	–	–	–	–	–	16.1	121	50	–	–	–	–
NRCoV2-SR01 VHH (VHH) VHH: EVQLVQSGGGSVQAGGSLRLSCVASGFTFDNYAIGWFRQAPGKEREGVSCISGNGGVTIYADSVKGRFTISRDNAKNLVYLQMNSLKPEDTAVYYCAATGIRSTWSVYGCSRLAGPYDYWGQGTQVTVSS	0.445	0.00123	2.77e+06	–	–	–	0.437	0.00158	3.63e+06	no binding	–	–	–	–	–	–	–
NRCoV2-S2G3 VHH (VHH) VHH: QVQLVQSGGGSVQAGGSLRLSCAASGSTFGIFLMGWRRQAPGKQRELVAHITSGGATNYADSVKGRFTISRDNAKNTVYLQMNSLEPEDTAVYYCYTTKRDDASVYWGQGTQVTVSS	3.74	0.000607	162000	–	–	–	–	–	–	–	–	–	–	no binding	4.28	0.000627	147000
NRCoV2-18 VHH (VHH) VHH: EVQLVESGGGLVQAGGSLRLSCVASGITISGYNMAWWRQTRGKQTERVAFINSGGSTTYSDSVKGRFTISRDNGKNTAYLQMNSLNAEDTADYFCSLHTSHDYWGQGTQVTVSS [NRCoV2-18 VHH, listing 1 of 2 here]	0.384	0.000152	395000	0.736	0.000197	268000	0.536	0.000165	308000	no binding	–	–	–	–	–	–	–
NRCoV2-18 VHH (VHH) VHH: EVQLVESGGGLVQAGGSLRLSCVASGITISGYNMAWWRQTRGKQTERVAFINSGGSTTYSDSVKGRFTISRDNGKNTAYLQMNSLNAEDTADYFCSLHTSHDYWGQGTQVTVSS [NRCoV2-18 VHH, listing 2 of 2 here]	–	–	–	–	–	–	–	–	–	–	8.9	133	51	–	–	–	–
NRCoV2-15 VHH (VHH) VHH: EVQLVSSGGGLVEAGGSLRLSCIASGSTSGRNTMGWFRQAPGKQREWVAIVSTSGATNYAGSVKGRFTLSRDNAKNAVYLQMNNLKPEDTAVYYCYAAYGGGGDYWGQGTQVTVSS	–	–	–	–	–	–	–	–	–	–	12.1	233	44	–	–	–	–
NRCoV2-1d VHH (VHH) VHH: EVQLVESGGGSVQPGGSLRLSCAASGSTLDYYAIGWFRQAPGKEREWVSSVSSSDGNTLYADSVKGRFTISRDNAKNTVYLQMNSLKAEDTAVYVCAADYSMRPFAVGRWHRDYEYWGQGTQVTVSS	1.1	0.00117	1.06e+06	2.1	0.00118	562000	1.32	0.00114	867000	no binding	–	–	–	–	–	–	–
NRCoV2-MRed04 VHH (VHH) VHH: EVQLVESGGGLVQPGRSLRLSCAASGNSFSISTMGWFRQAPGKERELVASIWSDTTTSYADSVKGRFTISTDNTRTKVYLQMSSLNPEDTAVYYCAADRGFVVRGQYDYWGQGTQVTVSS	–	–	–	–	–	–	–	–	–	–	6.1	124	53	–	–	–	–
NRCoV2-SR03 VHH (VHH) VHH: AVQLVDSGGGLVQAGGSLRLSCAASGSIFSNNHMGWYRQAPGKQRELVAAISSGGKTNYADFAKGRFTISRDNAKNMVYLQMNSLKPEDTAVYYCNRGGWEYRSSYYIMGPHWGQGTQVTVSS	1.01	0.00102	1.01e+06	–	–	–	1.13	0.00103	905000	no binding	–	–	–	–	–	–	–
